The record followed here is patent US20070027086A1 (ACTION PHARMA A S, published 2007).

The target in test [1] is T1, human MC1-receptor (melanocortin 1 receptor) (human, UniProt Q01726 1-317).
T1 construct: whole, on cells; Recombinant receptor on transfected cells
Briefly: competition with [^125I]NDP-MSH on COS cells expressing human MC1 receptor; Ki by Cheng-Prusoff. On the procedure: (§1) Expression of receptor clones. Human MC1- and MC5-receptor DNAs (Chhajlani and Wikberg 1992; Chhajlani et al., 1993), cloned into the expression vector pRc/CMV (InVitrogen Corp., USA), and human MC3- and human MC4-receptor DNAs (Gantz et al., 1993a & b), cloned into the expression vector pCMV/neo, were used. COS cells were grown and transfected with receptor clones as described (Schiöbth et al. 1995, 1996b). After transfection cells were cultivated for 48 h, detached from the Petri dishes, and used for radioligand binding as described (Schiöth et al. 1995, 1996b).
(§2) Binding studies. […] The competition data were analyzed by fitting it to the logistic function using non-linear regression analysis. The Kᵢ-values were then calculated from the thus obtained IC50-values by using the Cheng and Prusoff equation, essentially as described by Schiöth et al. 1995, 1996b.

In test [2] the target is T2, human MC3-receptor (human, UniProt P41968 1-323).
T2 construct: whole, on cells
Briefly: competition with [^125I]NDP-MSH on COS cells expressing human MC3 receptor; Ki by Cheng-Prusoff. How it is done: as §1, §2

For test [3], the target named is T1, human MC1-receptor (melanocortin 1 …). The test can be described thus: cell-based or functional assay.
The target in test [4] is T3, native mouse MC1-receptor (MSH-receptor of mouse B16 melanoma cells and of mouse RAW 264.7 cells) (mouse, UniProt Q01727 1-315).
T3 construct: whole, on cells; also called B16 melanoma cell MSH-receptor
Briefly: competition with 0.2 nM [^125I]NDP-MSH on mouse B16-F1 melanoma cells (native mouse MC1 receptor). On the procedure:
Assays for MSH-receptor binding was done essentially as described (Xia et al., Cancer Letters, 1996, 98, 157-162), in principle according to earlier described methods (Eberle et al., J. Recept. Res. 1991, 11, 311-322). In brief, collected cells were washed with binding buffer (for composition of binding buffer see below) distributed into 96 well plates and sedimented onto the well bottoms by centrifugation. […] After incubation the plates were put on ice, centrifuged and the cells washed with 0.1 ml of ice-cold binding buffer, centrifuged and the binding buffer was sucked off. The finally sedimented and washed cells were then detached from the plates with 0.2 ml of 0.1 N NaOH. Radioactivity was counted by using a Wallac, Wizard automatic gamma counter. The competition data were analysed by law of massaction computer modelling essentially as described (Bergstrom & Wikberg, Acta Pharmacol. Toxicol. 1986, 59, 270-278).

The target of another test is T4, human MC4-receptor (human, UniProt P32245 1-332).
T4 construct: whole, on cells
The test can be described thus: competition with [^125I]NDP-MSH on COS cells expressing human MC4 receptor; Ki by Cheng-Prusoff. How it is done: as §1, §2

In another test the target is T5, human MC5-receptor (human, UniProt P33032 1-325).
T5 construct: whole, on cells
Briefly: competition with [^125I]NDP-MSH on COS cells expressing human MC5 receptor; Ki by Cheng-Prusoff. How it is done: as §1, §2

The target of test [5] is T3, native mouse MC1-receptor (MSH-receptor …). The test can be described thus: competition with 0.1 nM [^125I]NDP-MSH on mouse RAW 264.7 macrophage cells (native mouse MC1 receptor). On the procedure:
MSH-receptor binding was done essentially as described (Xia et al., Cancer Letters, 1996, 98, 157-162), in principle according to earlier described methods (Eberle et al., J. Recept Res. 1991, 11, 311-322). In brief, the collected cells were washed, distributed into 96 well plates and sedimented onto the well bottoms by centrifugation. […] Radioactivity was counted by using a Wallac, Wizard automatic gamma counter. The competition data were analysed by law of massaction computer modelling essentially as described (Bergstrom & Wikberg, Acta Pharmacol. Toxicol. 1986, 59, 270278).

In test [6] the target is T2, human MC3-receptor. Briefly: ratio of Ki values, competition with [^125I]NDP-MSH on COS-1 cells expressing human MC receptors. On the procedure: as §1, §2

Square brackets hold non-standard residues; d marks the D form. Ends that are not written are not given here.

T2 sequence (P41968 whole entry): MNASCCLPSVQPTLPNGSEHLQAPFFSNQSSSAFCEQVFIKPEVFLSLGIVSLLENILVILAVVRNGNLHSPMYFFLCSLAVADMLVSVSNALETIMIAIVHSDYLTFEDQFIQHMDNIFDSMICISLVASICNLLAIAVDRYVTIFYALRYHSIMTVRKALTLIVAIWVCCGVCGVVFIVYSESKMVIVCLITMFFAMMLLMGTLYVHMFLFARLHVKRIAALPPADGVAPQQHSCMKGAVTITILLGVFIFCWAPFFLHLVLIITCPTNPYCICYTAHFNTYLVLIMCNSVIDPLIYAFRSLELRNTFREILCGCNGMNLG
T1 sequence (Q01726 whole entry): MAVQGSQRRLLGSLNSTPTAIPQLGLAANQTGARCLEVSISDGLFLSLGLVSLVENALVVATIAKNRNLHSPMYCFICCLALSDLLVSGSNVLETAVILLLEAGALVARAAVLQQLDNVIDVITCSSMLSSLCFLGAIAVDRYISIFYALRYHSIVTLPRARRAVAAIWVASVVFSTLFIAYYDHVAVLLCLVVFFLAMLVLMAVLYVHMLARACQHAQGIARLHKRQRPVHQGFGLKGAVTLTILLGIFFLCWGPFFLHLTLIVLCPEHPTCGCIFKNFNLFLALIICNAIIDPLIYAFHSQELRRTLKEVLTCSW
T3 sequence (Q01727 whole entry): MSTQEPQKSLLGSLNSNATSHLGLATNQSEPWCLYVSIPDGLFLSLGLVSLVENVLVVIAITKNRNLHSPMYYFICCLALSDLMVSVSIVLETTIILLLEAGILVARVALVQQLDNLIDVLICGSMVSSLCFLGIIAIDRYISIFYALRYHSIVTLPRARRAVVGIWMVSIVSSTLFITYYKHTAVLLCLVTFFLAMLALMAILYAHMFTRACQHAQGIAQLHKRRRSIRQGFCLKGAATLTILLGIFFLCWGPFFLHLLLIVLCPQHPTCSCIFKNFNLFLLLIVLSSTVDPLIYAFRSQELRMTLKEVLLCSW
T5 sequence (P33032 whole entry): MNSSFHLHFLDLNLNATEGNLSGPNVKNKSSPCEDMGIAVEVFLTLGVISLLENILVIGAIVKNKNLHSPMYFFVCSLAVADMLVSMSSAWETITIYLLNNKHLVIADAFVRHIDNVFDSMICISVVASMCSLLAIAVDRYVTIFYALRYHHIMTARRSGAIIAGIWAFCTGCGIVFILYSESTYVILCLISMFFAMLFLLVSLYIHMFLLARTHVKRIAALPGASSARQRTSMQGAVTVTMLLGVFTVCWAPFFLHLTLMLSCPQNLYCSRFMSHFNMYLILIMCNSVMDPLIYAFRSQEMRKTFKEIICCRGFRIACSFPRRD
T4 sequence (P32245 whole entry): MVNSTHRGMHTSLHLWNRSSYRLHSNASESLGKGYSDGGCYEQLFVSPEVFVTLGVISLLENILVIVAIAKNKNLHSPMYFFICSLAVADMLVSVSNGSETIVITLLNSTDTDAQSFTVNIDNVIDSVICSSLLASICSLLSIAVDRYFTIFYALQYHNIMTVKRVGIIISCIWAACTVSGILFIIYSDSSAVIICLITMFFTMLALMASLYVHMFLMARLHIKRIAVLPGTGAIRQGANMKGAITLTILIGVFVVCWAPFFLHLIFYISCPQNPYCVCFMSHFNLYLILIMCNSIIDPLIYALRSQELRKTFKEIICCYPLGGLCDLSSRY

B1: MS09 (Ser-Ser-Ile-Ile-Ser-His-dPhe-Arg-Trp-Gly-Lys-Pro-Val-NH2) (peptide)
peptide: SSIISH[dF]RWGKPV-NH2
modifications: N-terminus assumed
SMILES: CC[C@H](C)[C@H](NC(=O)[C@H](CO)NC(=O)[C@@H](N)CO)C(=O)N[C@H](C(=O)N[C@@H](CO)C(=O)N[C@@H](Cc1c[nH]cn1)C(=O)N[C@H](Cc1ccccc1)C(=O)N[C@@H](CCCNC(=N)N)C(=O)N[C@@H](Cc1c[nH]c2ccccc12)C(=O)NCC(=O)N[C@@H](CCCCN)C(=O)N1CCC[C@H]1C(=O)N[C@H](C(N)=O)C(C)C)[C@@H](C)CC
notes: Synthetic 13-residue peptide amide; also called MSO9
For B1, the Ki (commonly a measure of affinity in units of concentration, obtained from inhibition or displacement) in test [1] was found to be 0.2 nM; with human MC3-receptor [2] it was 7 nM; in test [4] it was 0.06 nM; with human MC4-receptor, 40 nM; with human MC5-receptor, 120 nM. Also, the “% of 10 nM α-MSH (cAMP stimulation, 10 nM)” value in test [3] was 89%. For the same molecule, the “Fold stimulation of cAMP (10 nM)” value in test [3] stood at 5.5 fold. The “Fold stimulation of cAMP (1 µM)” value in test [3] worked out at 7 fold.

B2: MS05 (Ser-Ser-Ile-Ile-Ser-His-Phe-Arg-Trp-Gly-Lys-Pro-Val-NH2) (peptide)
peptide: SSIISHFRWGKPV-NH2
modifications: also: trifluoroacetate salt
notes: Synthetic 13-residue peptide amide, obtained as the trifluoroacetate salt; also called MSO5; compound (3)
On to B2, for which the Ki is 1.35 nM in test [5], 0.76 nM in test [1], 1360 nM in the test with human MC3-receptor [2] and 1 nM in test [4]. In addition, in test [3], the “% of 10 nM α-MSH (cAMP stimulation, 10 nM)” value stood at 69%. For the same molecule, in test [3], the “Fold stimulation of cAMP (10 nM)” value came to 4.6 fold. In test [3], the “Fold stimulation of cAMP (1 µM)” value turned out to be 6.7 fold. The “fold lower affinity than for the MC1-receptor” value in the test with human MC3-receptor [6] was found to be 1800 fold.
